B1: E45N (designed binder)
chain: SMEEEVEKAAKEYEKKKKEAIEKHLEKLKAKDKEAAERFLKELENAAKEYAKDEAKTMSEEEAKRRAKKYKEKVLLSELSEEEQKEIKEAEEKLVRTILKYVEEAAK
B2: K48G (designed binder)
chain: SMEEEVEKAAKEYEKKKKEAIEKHLEKLKAKDKEAAERFLKELEEAAGEYAKDEAKTMSEEEAKRRAKKYKEKVLLSELSEEEQKEIKEAEEKLVRTILKYVEEAAK
B3: R66L (designed binder)
chain: SMEEEVEKAAKEYEKKKKEAIEKHLEKLKAKDKEAAERFLKELEEAAKEYAKDEAKTMSEEEAKRLAKKYKEKVLLSELSEEEQKEIKEAEEKLVRTILKYVEEAAK
B4: A36C (designed binder)
chain: SMEEEVEKAAKEYEKKKKEAIEKHLEKLKAKDKEACERFLKELEEAAKEYAKDEAKTMSEEEAKRRAKKYKEKVLLSELSEEEQKEIKEAEEKLVRTILKYVEEAAK
B5: M2E (designed binder)
chain: SEEEEVEKAAKEYEKKKKEAIEKHLEKLKAKDKEAAERFLKELEEAAKEYAKDEAKTMSEEEAKRRAKKYKEKVLLSELSEEEQKEIKEAEEKLVRTILKYVEEAAK
B6: E60H (designed binder)
chain: SMEEEVEKAAKEYEKKKKEAIEKHLEKLKAKDKEAAERFLKELEEAAKEYAKDEAKTMSHEEAKRRAKKYKEKVLLSELSEEEQKEIKEAEEKLVRTILKYVEEAAK
B7: T97H (designed binder)
chain: SMEEEVEKAAKEYEKKKKEAIEKHLEKLKAKDKEAAERFLKELEEAAKEYAKDEAKTMSEEEAKRRAKKYKEKVLLSELSEEEQKEIKEAEEKLVRHILKYVEEAAK
B8: E44R (designed binder)
chain: SMEEEVEKAAKEYEKKKKEAIEKHLEKLKAKDKEAAERFLKELREAAKEYAKDEAKTMSEEEAKRRAKKYKEKVLLSELSEEEQKEIKEAEEKLVRTILKYVEEAAK
B9: A9S (designed binder)
chain: SMEEEVEKSAKEYEKKKKEAIEKHLEKLKAKDKEAAERFLKELEEAAKEYAKDEAKTMSEEEAKRRAKKYKEKVLLSELSEEEQKEIKEAEEKLVRTILKYVEEAAK
B10: E91L (designed binder)
chain: SMEEEVEKAAKEYEKKKKEAIEKHLEKLKAKDKEAAERFLKELEEAAKEYAKDEAKTMSEEEAKRRAKKYKEKVLLSELSEEEQKEIKEALEKLVRTILKYVEEAAK
B11: I98Q (designed binder)
chain: SMEEEVEKAAKEYEKKKKEAIEKHLEKLKAKDKEAAERFLKELEEAAKEYAKDEAKTMSEEEAKRRAKKYKEKVLLSELSEEEQKEIKEAEEKLVRTQLKYVEEAAK
B12: E72F (designed binder)
chain: SMEEEVEKAAKEYEKKKKEAIEKHLEKLKAKDKEAAERFLKELEEAAKEYAKDEAKTMSEEEAKRRAKKYKFKVLLSELSEEEQKEIKEAEEKLVRTILKYVEEAAK
B13: E12R (designed binder)
chain: SMEEEVEKAAKRYEKKKKEAIEKHLEKLKAKDKEAAERFLKELEEAAKEYAKDEAKTMSEEEAKRRAKKYKEKVLLSELSEEEQKEIKEAEEKLVRTILKYVEEAAK
B14: A106V (designed binder)
chain: SMEEEVEKAAKEYEKKKKEAIEKHLEKLKAKDKEAAERFLKELEEAAKEYAKDEAKTMSEEEAKRRAKKYKEKVLLSELSEEEQKEIKEAEEKLVRTILKYVEEAVK
B15: Y13V (designed binder)
chain: SMEEEVEKAAKEVEKKKKEAIEKHLEKLKAKDKEAAERFLKELEEAAKEYAKDEAKTMSEEEAKRRAKKYKEKVLLSELSEEEQKEIKEAEEKLVRTILKYVEEAAK
B16: E60P (designed binder)
chain: SMEEEVEKAAKEYEKKKKEAIEKHLEKLKAKDKEAAERFLKELEEAAKEYAKDEAKTMSPEEAKRRAKKYKEKVLLSELSEEEQKEIKEAEEKLVRTILKYVEEAAK
B17: A105W (designed binder)
chain: SMEEEVEKAAKEYEKKKKEAIEKHLEKLKAKDKEAAERFLKELEEAAKEYAKDEAKTMSEEEAKRRAKKYKEKVLLSELSEEEQKEIKEAEEKLVRTILKYVEEWAK
B18: E82G (designed binder)
chain: SMEEEVEKAAKEYEKKKKEAIEKHLEKLKAKDKEAAERFLKELEEAAKEYAKDEAKTMSEEEAKRRAKKYKEKVLLSELSEGEQKEIKEAEEKLVRTILKYVEEAAK
B19: E81A (designed binder)
chain: SMEEEVEKAAKEYEKKKKEAIEKHLEKLKAKDKEAAERFLKELEEAAKEYAKDEAKTMSEEEAKRRAKKYKEKVLLSELSAEEQKEIKEAEEKLVRTILKYVEEAAK
B20: Y101C (designed binder)
chain: SMEEEVEKAAKEYEKKKKEAIEKHLEKLKAKDKEAAERFLKELEEAAKEYAKDEAKTMSEEEAKRRAKKYKEKVLLSELSEEEQKEIKEAEEKLVRTILKCVEEAAK
B21: Q84M (designed binder)
chain: SMEEEVEKAAKEYEKKKKEAIEKHLEKLKAKDKEAAERFLKELEEAAKEYAKDEAKTMSEEEAKRRAKKYKEKVLLSELSEEEMKEIKEAEEKLVRTILKYVEEAAK
B22: I98D (designed binder)
chain: SMEEEVEKAAKEYEKKKKEAIEKHLEKLKAKDKEAAERFLKELEEAAKEYAKDEAKTMSEEEAKRRAKKYKEKVLLSELSEEEQKEIKEAEEKLVRTDLKYVEEAAK
B23: I87W (designed binder)
chain: SMEEEVEKAAKEYEKKKKEAIEKHLEKLKAKDKEAAERFLKELEEAAKEYAKDEAKTMSEEEAKRRAKKYKEKVLLSELSEEEQKEWKEAEEKLVRTILKYVEEAAK
B24: V95A (designed binder)
chain: SMEEEVEKAAKEYEKKKKEAIEKHLEKLKAKDKEAAERFLKELEEAAKEYAKDEAKTMSEEEAKRRAKKYKEKVLLSELSEEEQKEIKEAEEKLARTILKYVEEAAK
B25: K11E (designed binder)
chain: SMEEEVEKAAEEYEKKKKEAIEKHLEKLKAKDKEAAERFLKELEEAAKEYAKDEAKTMSEEEAKRRAKKYKEKVLLSELSEEEQKEIKEAEEKLVRTILKYVEEAAK

This test concerns the target T1, TNFR1 (Homo sapiens, UniProt P19438).
T1 chain: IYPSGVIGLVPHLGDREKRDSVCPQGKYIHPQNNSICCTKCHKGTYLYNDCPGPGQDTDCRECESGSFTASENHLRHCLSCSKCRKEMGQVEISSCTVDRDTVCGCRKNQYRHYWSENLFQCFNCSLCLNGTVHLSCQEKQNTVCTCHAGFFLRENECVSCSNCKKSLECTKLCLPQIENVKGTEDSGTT
As to the kind of experiment: yeast display SC50.
Take B1: the “apparent Kd (screen)” value amounted to 2.48 nM.
Regarding B2, the “apparent Kd (screen)” value is 0.49 nM.
As for B3, the “apparent Kd (screen)” value was 18.3 nM.
On to B4, for which the “apparent Kd (screen)” value is 0.79 nM.
The same measure for B5: 0.956 nM.
Consider B6, for which the “apparent Kd (screen)” value amounted to 0.593 nM.
In the case of B7, the “apparent Kd (screen)” value worked out at 0.653 nM.
The figure for B8 is 0.593 nM.
Turning to B9, the “apparent Kd (screen)” value was found to be 0.49 nM.
Consider B10, for which the “apparent Kd (screen)” value was 13.8 nM.
Turning to B11, the “apparent Kd (screen)” value was 0.0498 nM.
For B12, the “apparent Kd (screen)” value is 0.446 nM.
On to B13, for which the “apparent Kd (screen)” value came to 0.539 nM.
With B14, the “apparent Kd (screen)” value was found to be 2.73 nM.
Take B15: the “apparent Kd (screen)” value stood at 8.56 nM.
Consider B16, for which the “apparent Kd (screen)” value was found to be 2.05 nM.
Take B17: the “apparent Kd (screen)” value amounted to 13.8 nM.
As to B18, the “apparent Kd (screen)” value came out at 0.446 nM.
For B19, the “apparent Kd (screen)” value is 0.718 nM.
Take B20: the “apparent Kd (screen)” value is 0.446 nM.
The figure for B21 is 5.84 nM.
With B22, the “apparent Kd (screen)” value came to 1.86 nM.
Turning to B23, the “apparent Kd (screen)” value is 12.5 nM.
Turning to B24, the “apparent Kd (screen)” value stood at 6.43 nM.
With B25, the “apparent Kd (screen)” value is 0.446 nM.

Values taken from publication PMC12416549 (2024).
